Key:
[1] = biological target: VPRpTPV (Cdc25c-T48), rhodamine-labeled (human); experiment: fluorescence anisotropy, labeled peptide constant, protein varied
[2] = biological target: PPApTPP (Myt1-T412), rhodamine-labeled (human); experiment: as above
[3] = biological target: STSpTPR (Myt1-T455), rhodamine-labeled (human); experiment: as above
[4] = biological target: PPGpSPP (Myt1-S416), rhodamine-labeled (human); experiment: as above
[5] = biological target: WFYpSPFLE (Pintide), rhodamine-labeled; experiment: as above
[6] = biological target: GSSpSPV (Wee1-S123), rhodamine-labeled (human); experiment: as above
[7] = biological target: YSPTpSPS (CTD-S5), rhodamine-labeled (human); experiment: as above
[8] = biological target: YpSPTSPS (CTD-S2), rhodamine-labeled (human); experiment: as above
[9] = biological target: YLGpSPI (Cdc25c-S168), rhodamine-labeled (human); experiment: as above
[10] = biological target: LYRpSPS (Cdc25c-S214), rhodamine-labeled (human); experiment: as above
[11] = biological target: YpSPTpSPS (CTD-S2/S5), doubly phosphorylated CTD peptide (human); experiment: as above
[12] = biological target: YpSPTpSPS (CTD-S2/S5), doubly phosphorylated CTD peptide (human); experiment: fluorescence anisotropy

human Pin1 (full length, wild type) (from UniProt Q13526 1-163) (enzyme)
Kd [1]: 4.9 µM
Kd [2]: 12 µM
Kd [3]: 46 µM
Kd [4]: 80 µM
Kd [5]: 17 µM
Kd [6]: 73 µM
Kd [7]: 30 µM
Kd [8]: 61 µM
Kd [9]: 69 µM
Kd [10]: 47 µM
Kd [11]: 10 µM

Pin1 Trp-34 to Phe mutant (from UniProt Q13526 1-163) (enzyme)
fold reduction in binding affinity (against wild type Pin1) [12]: 6 fold

isolated PPIase domain of human Pin1 (from UniProt Q13526 50-163) (enzyme)
Kd [5]: 86 µM
Kd [11]: 390 µM

isolated WW domain of human Pin1 (from UniProt Q13526 1-39)
Kd [1]: 7.7 µM
Kd [2]: 15 µM
Kd [3]: 39 µM
Kd [4]: 126 µM
Kd [5]: 44 µM
Kd [7]: 34 µM
Kd [8]: 110 µM
Kd [9]: 91 µM
Kd [10]: 72 µM
Kd [11]: 34 µM

Source: patent publication US7127357
